In patent US5849493, “Screening assay for compounds stimulating somatostatin transcription factor -1 binding to an STF-1 binding site” (Research Development Foundation, dated 1997):

Columns and labels:
[1] = molecular target: T1, Pbx1, in vitro translated protein (human, UniProt P40424); test: gel mobility shift, TSEII probe, reticulocyte lysate programmed with PBX RNA
Source text: Isl1 H.D., homeodomain of the lim domain factor Isl1. PBX interaction motif-Isl1 H.D., STF-1-Isl1 fusion protein containing STF-1 PBX interaction motif region (amino acid residues 110–138) fused to the Isl1 homeodomain. cdx3 H.D., homeodomain of the pancreatic homeobox protein cdx3 (amino acid residues 143–253). PBX interaction motif-cdx3, fusion protein containing STF-1 PBX interaction motif region (amino acid residues 110–138) fused to the cdx3 homeodomain (amino acid residues 176–253). PBX interaction motif-STF-1, STF-1 polypeptide containing the PBX interaction motif region (110–138) fused to the STF-1 homeodomain (amino acid residues 140–215). STF-1 H.D. STF-1 homeodomain alone without the PBX interaction motif region. […] Cooperativity with PBX tested with homeodomain fusion proteins shown over each lane. Monomeric and heterodimeric complexes as labeled.
(§1) Gel mobility shift assays were performed exactly as described previously (20) using 0.1 ng of end-labeled double stranded oligonucleotide whose sequences are presented in FIG. 2C. For off-rate analysis, the TSEII probe was first incubated with the proteins at room temperature for 30 minutes, then a 1000-fold excess of unlabeled TSEII oligonucleotide was added and aliquots were loaded at various time points on a running gel. In supershift assays, TU6 nuclear cell extract was preincubated with 1 µl of Pbx (11) or STF-antiserum (20) for 15 minutes at room temperature before adding the TSEII probe.

[2] = molecular target: T1, Pbx1, in vitro translated protein; test: gel mobility shift, TSEII probe
Experimental: Deletion endpoints in mutant STF-1 polypeptides are indicated over each lane. For example, Δ1-70 indicates STF-1 polypeptide lacking residues 1–70. Hox 140–215, STF-1 homeodomain polypeptide. […] H.D., STF-1 homeodomain (amino acid residues 140–215). Full length STF-1 protein extends from amino acid residues 1–284.
as §1

| binding result [1] | binding result [2] | Binder |
| --- | --- | --- |
| no binding | – | GST-Isl1 H.D. fusion protein (other) KQPEKTTRVRTVLNEKQLHTLRTCYAANPRPDALMKEQLVEMTGLSPRVIRVWFQNKRCKDKKRSIMMKQLQQ |
| no binding | – | GST-PBX interaction motif-cdx3 fusion protein (other) EEPSRVHLPFPWMKSTKAHAWKSQWAGGALGSQVKTRTKDKYRVVYTDHQRLELEKEFHYSRYITIRRKAELAATLGLSERQVKIWFQNRRAKERKINKKKLQQQQQ |
| no binding | – | GST-PBX interaction motif-Isl1 H.D. fusion protein (other) EEPSRVHLPFPWMKSTKAHAWKSQWAGGAKQPEKTTRVRTVLNEKQLHTLRTCYAANPRPDALMKEQLVEMTGLSPRVIRVWFQNKRCKDKKRSIMMKQLQQ |
| no binding | – | GST-cdx3 H.D. fusion protein (other) PPGPAATGAAEQLSPSGQRRNLCEWMRKPAQPSLGSQVKTRTKDKYRVVYTDHQRLELEKEFHYSRYITIRRKAELAATLGLSERQVKIWFQNRRAKERKINKKKLQQQQQ |
| – | no binding | STF-1 homeodomain polypeptide Hox 140-215 (other) not shown |
